Three molecules from article PMC11257539 (bioRxiv, 2024) can be followed below.

Non-standard residues stand in square brackets, D forms with d. No end group written: not given here. pS = N[C@@H](COP(=O)(O)O)C(=O)O

For assay [1], the target named is SNX27 full-length (purified, as analyte in BLI and in liposome pelleting) (human, UniProt Q96L92 1-541). Description: co-sedimentation.
Assay [2] deals with SNX27 PDZ domain (purified, BLI analyte and ITC cell) (human, UniProt Q96L92 43-136). Description: ITC. Background: In ITC the heat of successive injections is recorded.
Assay [3] deals with T1, ESCPE-1 complex (SNX2/SNX6 heterodimer) (human, UniProt O60749;Q9UNH7).
T1 sequence 1: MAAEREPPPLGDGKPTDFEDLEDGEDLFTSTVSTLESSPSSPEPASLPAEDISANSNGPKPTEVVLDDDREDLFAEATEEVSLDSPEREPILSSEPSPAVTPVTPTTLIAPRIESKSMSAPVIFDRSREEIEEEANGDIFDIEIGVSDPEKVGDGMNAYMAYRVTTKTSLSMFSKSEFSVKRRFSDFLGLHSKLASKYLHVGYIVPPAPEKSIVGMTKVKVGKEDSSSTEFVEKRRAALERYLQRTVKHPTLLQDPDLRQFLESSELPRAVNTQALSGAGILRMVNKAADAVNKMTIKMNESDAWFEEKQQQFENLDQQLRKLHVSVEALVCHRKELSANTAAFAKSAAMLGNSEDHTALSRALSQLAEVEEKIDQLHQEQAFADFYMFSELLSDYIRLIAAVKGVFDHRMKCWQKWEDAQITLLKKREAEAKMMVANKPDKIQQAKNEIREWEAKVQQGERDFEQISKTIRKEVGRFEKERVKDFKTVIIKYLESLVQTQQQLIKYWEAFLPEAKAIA
T1 sequence 2: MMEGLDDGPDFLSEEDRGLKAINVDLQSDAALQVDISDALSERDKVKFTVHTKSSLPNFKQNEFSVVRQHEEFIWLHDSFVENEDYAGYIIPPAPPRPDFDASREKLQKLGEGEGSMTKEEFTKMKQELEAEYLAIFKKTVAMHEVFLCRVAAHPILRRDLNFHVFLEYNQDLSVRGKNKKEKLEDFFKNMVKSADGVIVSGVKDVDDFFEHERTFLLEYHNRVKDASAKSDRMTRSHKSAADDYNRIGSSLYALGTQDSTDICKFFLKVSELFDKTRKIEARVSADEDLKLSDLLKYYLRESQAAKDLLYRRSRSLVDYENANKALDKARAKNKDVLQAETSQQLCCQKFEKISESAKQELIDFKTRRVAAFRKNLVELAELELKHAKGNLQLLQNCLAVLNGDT
Description: co-sedimentation.

In general, Kd refers to the constant that tells how readily two partners part at equilibrium. Read a high Kd as weaker binding. Broadly, the stoichiometry N is a count of units in the complex or per binding partner.

For the molecule YTVLHRGHHQELEKLPIHNDPESLESCF [His-tagged PDZbm cargo: C-terminal cytosolic tail of 5-HT4(a)R (residues 360-388)], in assay [1], the binding result is recorded as “binds”.

In the case of E[pS]LESCF [PDZbm cargo peptide 5-HT4(a)R-pS-5 (EpSLESCF)], in assay [2], binding was characterised by a dissociation constant (Kd) of 1.1 µM, the dH is -15.2 kcal/mol and the “stoichiometry N” value is 1.1.

With SNVSYKYSKVNKEEETDENETEWLMEEIQ [CI-MPR cargo motif (residues 2347-2375)], the binding result in assay [3] is recorded as “binds”.
